In the DeepSol protein solubility set:

Assay: soluble on expression in E. coli; label from the status in PepcDB or PDB records

Row | Sequence | soluble on expression in E. coli
1 | GYDGVRIGQGYDIHQIRVGPPEDIVADTTADTAANTADPNKQSFKRLTIGGVPVETISVLSHSDGDVIFHALVDALLGGMSCSDLGTLFPDGSPKYKNKNSLSFLRYARLLLYKRNYAIANVDIIVIAEVPKISPIREEIVRNISSALGISESQVSLKGKTHEQLGPVGQKKAIECFANALLIRKQS | soluble
2 | SDNDLKLLALESETIRSVADLHNKRVGMIRASASEFYFDSLLLANNLKGIPIDKVYGTADQLYQQLFDKQLDAISIWEPWGYKIGVAAESKVTNLSLPGIYTLSFNLLTMKPTTEEEKQRSLAILKA | not soluble
3 | MNIAAVAGSPTGDMIEIGQHLRVRHFCYQTAKQRGDIGKIIRIAFAEVKFRCDSQIPLQRQTATNVADMFMHAKNFLHYNDHWQWAIALLWSGMVSRHVIPL | not soluble
4 | MQVSKRKSLCKICGNPAFGNHFGVLSCRACAAFFRRTNVDGETFCPIGNCKIDKHGKFYCKKCRLRICLEAGMDANKFQHDRDLISTSTSESSDSSGSFSFSQRSKVPKSMANFLGRPAFILSCEPDKASKVKTIVDVTFLINQAFDIFGNVDRKRFSSNSNLGRMTKKFEDLQNEKSSNLSTIKVLGLKESMIFWEQDFLRTARWLSHFDEFQELPLSIRMQILKVAWILWGRLDKLVKTANERKNQQLNQNFYMIGKDVGIDIGNFEVDVSWCTNYSKEQLAYYLDCHHDEPFNIIVDAISDLKPSDMELNFMLLELCLAHAGKQHQGDVLMFTDRLLEVVSNELHDYYQSEQISNYSSRITKMMKINNLIRRNLFERLERQAVAKVFNIISVHFSHPDMFCNAGF | not soluble
5 | MGSDKIHHHHHHMKNLPSLKNLYYLVHLHQEQNFNRAAKMCFVSQSTLSSGIQNLEEQLGYQLIERDHKSFMFTAIGEEVVERARNILTNVDDLVELVKNQGEPMTGEIRLGCIPTIAPFLLSRVVKLCQQDYPKLSLLLKEDTTERLLDALAKGELDLLILALPVDTSGFHSMKVGIDPFKMVMHKEVSQQFLQPIDYQKMPDESIFLLQAEHCITGHAITACQLGDSAKINPFAATSLHTLVQMVNSKLGTTFLPQMAIDTGILTDTDLVAMDPPGEAPYRDIGLVWRQTTSRISTFRTLGLAIQQKLLAQSLPS | not soluble
6 | FLNNKHREKGLKAEEEACGFLKSLGFEMVERNFFSQFGEIDIIALKKGVLHFIEVKSGENFDPIYAITPSKLKKMIKTIRCYLSQKDPN | not soluble
7 | GHMAKTDRSQPSVLARIAAFRTGLSAEASAADYLERQGYRILARRFKTRCGEIDLVAQRDALVAFVEVKARGNVDDAAYAVTPRQQSRIVAAAEAWLSRHPEHAMSELRFDAILIAPNTAPRHLPGAFDATPGS | soluble
8 | MSGGGIIPRGGGYSKRRGRGRRGGGNGGFRDDIRDNQSDRHLSPDRRSNHSEDRHEHRFNNYRQQNRPNSRTPSPSNHNQVQTYRNNPFDARPALSSNDRDQGRNRFSPPSFRRDGRDSDRNGYHEKEEEPTRGSRNDLRTILKPTDKEAARTWKLRIADAEEAIRRAEFQLRRAKMDHEALLEAYKEYTETTCPQELLKPNW | not soluble
9 | QPLPSAALRRCPPPARVGGRWVSAEKVNEGGSGGGGSQRLTRRARSTARVPAPGTMDAPRASAAKPPTGRKMKARAPPPPGKAATLHVHSDQKPPHDGALGSQQNLVRMKEALRASTMDVTVVLPSGLEKRSVLNGSHAMMDLLVELCLQNHLNPSHHALEIRSSETQQPLSFKPNTLIGTLNVHTVFLKEKVPEEKVKPGPPKVPEKSVRLVVNYLRTQKAVVRVSPEVPLQNILPVICAKCEVSPEHVVLLRDNIAGEELELSKSLNELGIKELYAWDNRRETFRKSSLGNDETDKEKKKFLGFFKVNKRSNSKGCLTTPNSPSMHSRSLTLGPSLSLGSISGVSVKSEMKKRRAPPPPGSGPPVQDKASEKVSLGSQIDLQKKKRRAPAPPPPQPPPPSPLIPNRTEDKEENRKSTMVSLPLGSGSHCSPDGAPQVLSEAEETVSVGSCFASEDTTEDSGVMSSPSDIVSLDSQQDSMKYKDKWATDQEDCSDQDLAGTPDLGPQKSPLWEKNGSENSHLRTEKAVTASNDEEDLLIAGEFRKTLAELDEDLEEMEDSYETDTSSLTSSIHGASNHCPQDAMIPHGDTDAIPVTFIGEVSDDPVDSGLFSNRNNNAGSFDSEGVASRRDSLAPLQAEHSQPHEKAREEVPALHPASHDVGKGIRVALSNISKDGNLMETAPRVTSFASNLHTDNLNAKVKDKVYGCADGERTQATERVNSQPVNEKDSNDKNAALAPTSWHQRGQNPGKSYRLKHGLTTYKIIPPKSEMRCYDRDVSLSTGAIKIDELGNLVSPHATGIRIISLSSSVPEAESQPIGKVREFWRCNSVEKHLGRPSESSARGPPSTPVPTQTQNPESRLQADPKPISPQQKSAHHEGRNPLGEGRNQPPTMGMGHVRVPAAHTTEVTFLKPQRRTSSQYVASAIAKRIGAPKVHADVVRPHGYAEKGYAGKAPVLAAPPVTVKDDRTSSPHSETQGWKDGAQWPCVTPPNNHGEDLAVGAPPRGEVIGPHRKLSTQDRPAAIHRSSCFSLVQSSQRDRVSVGQSCGFSGKQSTSSQEASSASEPRRAPDGTDPPPPHTSDTQACSRELVNGSVRAPGHGEPSHPPGGSGTESHILLEREEKPSVFSTDGNETDSIWPPSIFGPKKKFKPVVQRPVPKDTSLHSALMEAIHSAGGKDRLRKTAEHTGEGRPAKLSYTEAEGERSALLAAIRGHSGTCSLRKVASSASEELQSFRDAALSAQGSESPLLEDLGLLSPPAIPPPPPPPSQALSAPRTASRFSTGTLSNTADARQALMDAIRSGTGAARLRKVPLLV | soluble
10 | MGSDKIHHHHHHMSKLIETRGLTKKYPGVVALDHVDFDLEPGEVHVLFGENGAGKSTLISMLAGANAPSEGRLLLNGEEVQFESVADAQAKGIYTVFQEFSLIPTLTVAQNIFLGWELRFGPFLDHRAMRARAREMLAELGFDIDPAAIVAQLSRAQQQMVEITKAFHGDLNVLILDEPTASLTDREVDHLFEFVAKLKAQGVGIVYISHRIQEFERIAERVTVLRDGAVIGTVAMAETDEDALVEMMTGRAFDQIYPSITFSPGETLLEVSDLTAPGISGACFQVRRGEVLGVAGLVGSGKSRLFRAVMGLTPVQSGSIRFKGADITNAPTRKIITRGMYYLSPDRKAEGLDLAKNARDNLAVNIISGQRHSGHGPFIPWGAVNARIDQISDHVELHAGYRSKPTSQLSGGNQQKVLFGKCFGQDADLIIFDEPTVGVDMGTRAALYLLIKELAEAGKAIVVISSDLPEAMNIAHRLLVLAHGTITARLSADEMSEDTVLKYFFDETGASQ | not soluble
11 | FPEKVKSLTLIDSFGFICAPEEQMTDQLRRGLLSRMKSANTTRSFTEETAVKARLHVSDLTVEHAKLIVKRSLIEIEPKSMDTVGVDSASILYRWRSDPRLRSVSPYRLSLKQGQQLFSDIKCPLQLIYGDKGMKMVVTGLKNFSSGVNSLQTTKLSGGHHVHMEKAEELLPILHHFFSEI | not soluble
12 | MGSDKIHHHHHHMHIPPFDNQNQAIVGEGDAHVPLTYFNIVKLKEGEAYDYRLKGYETCIVPATGTVDVEVGGEVFADIGNRCVDVWDGDPEGVYVPTNVGAHITARTDAEIFVAGAQFTETLTPFAVRAGELDLVQYGSDETKTHRKIKHILGAGHHDRVGRLLVSELFTVGAGGWSGFPSHKHDTDRLPDETRHDECYNFRFKPDYGSGLQMLQREDNEPGDAYHIMNGSTVLIDKGYHPCCALPGYEMYYFTILGGLSQRSLKQYFQPTHSEQLHTIPGIMDMVAKFK | not soluble
13 | AHHHHHHGSITLELHPSEIARYFELEECSHYFSNLLLRKRGELQEFEPIIRRKEIETIELAKWGDEFELSLLQEFKKGEALKKLGVKELPRFYGFLTENDTPVRKFFEKYFKDGIIVEEDPDKLLEIINSEKSAVIYQAPLKGRIGKFDVSGRADFIIKVGKTLYLLEAKFTKEEKFYHRIQAIIYAHLLSQMIEGYEIKLAVVTKENFPIPSNFLRFPGDVEELKITLEEKLGGILREQELWIDARCTTCPFEALCLSKALEERSLGLLSLPPGIIRILKEEGIKDLKDMAKLFEFKENSPTNFEEPSIKDPKKTQEIAKRTGINLLKLSRIAQAILKYLDEGETTPLFIPRTGYNLPMDERVGDVEPSYYPPRSLVKVFFYVQTSPITDTIIGISALVKNRQNGERIIVKFVDEPPIEVSDAQEKERMLLIEFFRDVIDAVKSLSPTDKVYLHMYFYNRKQRDDLMDAVKRHKEIRENNAVMALLSLRRAIDWESFSIIKDEIIRRHALPLSPGLGFVTVATQFGYRWRRNKTFARMLEVVARRENGKINLKTLLNISETGIGPEYYPIIDRDNEGIPFTLFWSALVKLATEEDNSRIKRDIRDILSQMVEALKTIEERIPEQYKDAFVKKEGIPKEDLENFDIKKEELADILLEYLQLEFDARFRERSEYYRLPLSIRAYSEESALIKIENIEKKKNDCLLFGKIVLIDENGRIKEYNPKEVLIDIDEGSLVVVTPKKFLDKLRRDPVQRISKSPLGIVEAIDHETGKVVIRLIRVSPGRFTLKHSKFSCKNGLLTITYPEGEVKVTPGEIVIVDPSVDDIGMERAYNVLSEISQGELKHEIYQKVKAIYEGNTESRYEVNIWKKKHIEEFLSRVKKINEEQKKFAIDINNFLVTLQGPPGTGKTSGAIAPAILARAYSMVKDKKNGLFVVTGVSHRAVNEALIKTLKLKKELENTLKELRKIDLIRAVSGEEAIKIIKEELEREIKDDVDRIRFTAQEITHSSKQRSLDKYFANSGTVRIVFGTPQTLNKLMKNTKEVELVVIDEASMMDLPMFFLSTKVCKGQVLLVGDHRQMEPIQVHEWQLEDRKTFEEHYPFLSALNFIRFLRGELDERELKKFKRILGREPPEWKKDKNEVLPLYRLVRTYRLPQEIADLLSDAIYRADGIKLISEKKKRRKIIARHKDEFLSIVLDDRYPFVLILHDEGNSTKINELEAKIVEKIIKRVENIDIGVVVPYRAQKRLIASLIDSAQVDTVERFQGGEKSLIVISMTSSDPRIPGKGF | not soluble
14 | MSSRVANLTVIVSSKRRRVSVARFSCGKTAQLSKKQTGYYSPEIFPSTGKDCNPQPANCLKDQYVLRHCCVDDRSGKMGYSVKFLVLTRMDTETASLFHCKPCYSKMTFTIYHPLTHSFFTSCWLEHHHHHH | not soluble
15 | MSGNYDKNNINNFIDKNDEHDMSDILHKINNEEKKYEEIKSYSECLELLYKTHALKLGLDNPKKLNESFGHPCDKYKTIHIAGTNGKGSVCYKIYTCLKIKKFKVGLFSSPHIFSLRERIIVNDEPISEKELIHLVNEVLNKAKKLYINPSFFEIITLVAFLHFLNKKVDYAIIETGIGGRLDATNILTKPEVIVITSIGYDHLNILGDNLPIICNEKIGIFKKDANVVIGPSVAIYKNVFDKAKELNCTIHTVVPEPRGERYNEENSRIALRTLEILNISIDYFLKSIIPIKPPLRIQYLATEQIQHIKKKFSPDNLEHNVQYPLAVILDVGHNETAIDRLCTDINYFHKGQNIRICISITKPRNLSVFHPFIAQFGDTLKDIFYLPSLNERTYDFEEIVEMLNNEEEIKNEIKELILSSSKKVGKWLAHEKQGNINEEDALKLYKRGCIPLIIKNAFLECCKDNSILLVCGTFFVFDEVLNVFDIHSDMQDTIFMNEPS | not soluble
16 | MSTFSFIIVNNEQVRIHDIQGKSHMSPYNGKKVNNVEGVVTALDKNGFYIEDNQPDNDPATSEGMYVYKKDANVAVGDLIQVDGVVEEYVGPGYAERFETDLTTTEIKASRVVVIAKDQSLPAPIVLGENGVKIPDQIIDNDAFGLFDPNEDAIDFYESIEGMRVTMPTPKVIAPQKNGNLYVTVKNGGDKIVTQYGTPLLDENQLNPERLSVKVPRDYVAKVGDTFTGDITGVVGYDYGSFRISPITELPAVVDGGFKQVGANIQPRLDKLTVATYNIENFSANKKETTDEKVKALAYSIKYNLKMPDIIGVEEMQDNNGLEHHHHHH | soluble
17 | GPGSMRLVDLSLPLYDGMPVYDGDPPVHVTKVCTREKDGWEVRHLQMGSHTGTHVDAPAHMHEDGSNLDEVPLTRFCGPAVVVKVADSSFPPNKGLLFYEAVPADCVPRIVAANAPFVGGPLEEKAERLLLGCGIITYTGLVNVEQLIGESFTFYGLPLRIRGGDGSPVRAVAVMDDK | soluble
